Experimental data published in article PMC11283454 (Nature Communications, 2024).

Biological target: the molecule itself
Test: MST

B1: human ATE1 isoform 2 (arginyl-tRNA-protein transferase 1), recombinant (enzyme, UniProt O95260-2 1-518, looked up)
chain: MAFWAGGSPSVVDYFPSEDFYRCGYCKNESGSRSNGMWAHSMTVQDYQDLIDRGWRRSGKYVYKPVMNQTCCPQYTIRCRPLQFQPSKSHKKVLKKMLKFLAKGEVPKGSCEDEPMDSTMDDAVAGDFALINKLDIQCDLKTLSDDIKESLESEGKNSKKEEPQELLQSQDFVGEKLGSGEPSHSVKVHTVPKPGKGADLSKPPCRKAKEIRKERKRLKLMQQNPAGELEGFQAQGHPPSLFPPKAKSNQPKSLEDLIFESLPENASHKLEVRLVPVSFEDPEFKSSFSQSFSLYVKYQVAIHQDPPDECGKTEFTRFLCSSPLEAETPPNGPDCGYGSFHQQYWLDGKIIAVGVIDILPNCVSSVYLYYDPDYSFLSLGVYSALREIAFTRQLHEKTSQLSYYYMGFYIHSCPKMKYKGQYRPSDLLCPETYVWVPIEQCLPSLENSKYCRFNQDPEAVDEDRSTEPDRLQVFHKRAIMPYGVYKKQQKDPSEEAAVLQYASLVGQKCSERMLLFRN
modifications: red Tris-NTA dye on the labelled copy in MST
- Kd: 8.5 µM
